Results reported in patent US20210139602A1 (MEDABOME, published 2021).

Target: T1, rPODXL-v2-Del-Fc fusion protein (human, UniProt O00592-2 23-429, highly glycosylated)
T1 construct: extracellular domain; In-frame fusion of the ECD and human IgG1 Fc, expressed in CHO-K1; The two deletions are written as substitutions to '-'; not shown: human IgG1 Fc from the pFUSE-hIgG1-Fc1 expression vector (InvivoGen)
T1 sequence (looked up): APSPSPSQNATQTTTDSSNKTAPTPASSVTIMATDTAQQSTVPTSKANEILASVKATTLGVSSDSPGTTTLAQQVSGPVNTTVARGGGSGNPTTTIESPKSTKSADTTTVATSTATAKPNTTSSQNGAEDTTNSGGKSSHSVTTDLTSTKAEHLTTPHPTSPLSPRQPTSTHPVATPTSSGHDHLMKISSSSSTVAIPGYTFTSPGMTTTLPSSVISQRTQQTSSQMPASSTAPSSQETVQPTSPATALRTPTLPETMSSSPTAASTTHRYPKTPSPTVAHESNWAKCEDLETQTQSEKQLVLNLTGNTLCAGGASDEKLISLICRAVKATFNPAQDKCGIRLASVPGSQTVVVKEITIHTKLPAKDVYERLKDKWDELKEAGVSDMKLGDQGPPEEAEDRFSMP
Experiment: BLI (Octet QKe), mAb captured on anti-mouse IgG Fc (AMC) biosensors, antigen in 1:2 serial dilutions
Procedure: The Octet® QKe System (Molecular Devices, San Jose, Calif.) was used to determine the binding affinities between MAI1738 mAb and the extracellular domains of PODXL-v2 and PODXL-v2-Del. The MAI1738 mAb was immobilized to the Anti-Mouse IgG Fc Capture (AMC) biosensors, followed by loading of the antigen, rPODXL-v2-Fc or rPODXL-v2-Del-Fc, at 1:2 serial dilutions for 5 minutes. The assay was repeated multiple times to determine the average range of the affinity between MAI1738 and rPODXL-v2-Fc or rPODXL-v2-Del-Fc.

Kd: 1.58 nM
B1: MAI1738 mAb (antibody, V domains shown)
VH: EVKLVESGGGLVKPGGSLKVSCAASGFTFSTYTMSWVRQTPEKRLEWVATISGGVIYTYYPDSVKGRFTISRDDAKNTLYLQMSSLRSEDTALYYCARHYSNYEGQGMDSWGQGTSVTVSS
VL: DIVLTQSPVTLSVTPGDSVSLSCRASQSINNNLHWYQQKSHESPRLLIKYASQSISGIPPRFSGSRSGTDFTLSINTVETEDFGVYFCQQSNSWPLTFGAGTKLELKR
notes: Mouse monoclonal antibody from a hybridoma (A/J mice); it is detected with anti-mouse IgG-Fc; also called anti-PODXL-v2 monoclonal antibody; second subclone of MS17-38
